Substitutions are numbered along the chain they refer to.

Here are results for 20 molecules from PMC11488661 (Science immunology, 2024).

The labels stand for the following.
B1: g28-D78-10_CLK09 (antibody, V domains shown)
VH: QLQLVQSGADVKKPGASVKVSCKASGYTFTGYFIHWVRQAPGQGLEWMGWLNPIYGGVNYARNFQGRVTMTRDTSISTAYLELRRLKSDDTAVYYCARVAERMIFDVWGQGTMVTVSS
VL: DIQMTQSPSSLSASVGDRVTIACQASQDINNYVNWYQQKPGKAPKLLIYDASNLETGVPSRFSGSGSGTDFTFTISSLQPEDIATYYCQQYEFFGGGTKVEIK
B2: g28-D78-20_CLK09 (antibody, V domains shown)
VH: B1 VH with D10E, G66D
VL: B1 VL
B3: g28-D78-15_CLK09 (antibody, V domains shown)
VH: B1 VH with K13T, G31S, G57A, G66D
VL: B1 VL
B4: g28-D78-12_CLK09 (antibody, V domains shown)
VH: B1 VH with A9T, D10E, R84K, T91A
VL: B1 VL
B5: g28-D78-16_CLK09 (antibody, V domains shown)
VH: QVQLVQSGAEVKKPGASVKVSCKASGYTFTGYHIHWVRQAPGQGLEWMGWVNPYHGGTNYAQIFQGRVTMTRDTSISTAYMELSRLRSDDTAVYYCALWFGEKKTFDIWGQGTMVTVSS
VL: B1 VL with A22T, D28G, N30S, Y32F, V33L, Y36F, A51V
B6: g28-D78-13_CLK09 (antibody, V domains shown)
VH: B1 VH with D10E, R84K
VL: B1 VL
B7: g28-D78-18_CLK09 (antibody, V domains shown)
VH: B5 VH with G31D
VL: B1 VL with A22T, D28G, N30S, Y32F, V33L, Y36F, A51V
B8: g28-D78-6_CLK09 (antibody, V domains shown)
VH: B1 VH with G66D
VL: B1 VL with A22V, G66R
B9: g28-D78-2_CLK09 (antibody, V domains shown)
VH: B1 VH with D10E, R84K
VL: B1 VL with G66R, E101R
B10: g28-D78-11_CLK09 (antibody, V domains shown)
VH: B1 VH with G66D
VL: B1 VL with A25S, D28G
B11: g28-D78-8_CLK09 (antibody, V domains shown)
VH: B1 VH with D10E, G26R, G66D
VL: B1 VL with N30S, E101R
B12: g28-D78-4_CLK09 (antibody, V domains shown)
VH: B1 VH with D10E, V37I, R84K
VL: B1 VL
B13: g28-D78-3_CLK09 (antibody, V domains shown)
VH: B1 VH with D10E, V37I, R84K
VL: B1 VL with E101R
B14: g28-D78-5_CLK09 (antibody, V domains shown)
VH: B1 VH with D10E, G66D
VL: B1 VL with N30S
B15: g28-D78-14_CLK09 (antibody, V domains shown)
VH: QVQLVQSGAEVKKPGASVRVSCKASGYTFTGNYIHWVRQAPGQGLEWMGWLNPINGGTNHAQKFQGRVTMTRDTSISTAYMELSRLRSDDTTVYYCARVGGLWFGKGWTFDIWGQGTMVTVSS
VL: DIQMTQSPSSLSASVGDRVTITCQASQDISILNWYQQKPGKAPKLLIYGASNLETGVPSRFSGSGSGTDFTLTISSLQPEDIATYYCQQYEFFGGGTKVAIK
B16: g28-D78-17_CLK09 (antibody, V domains shown)
VH: B15 VH with F104L
VL: B15 VL with L72F, A100E
B17: g28-D78-21_CLK09 (antibody, V domains shown)
VH: QLQESGAEVKKPGASVRVSCKASGYTFTGNYIHWVRQAPGQGLEWMGWVNPINGGTNHAQKFQGRVTMTRDTSISTAYMELSRLRSDDTTVYYCARVGGLWFGKGWTFDIWGQGTMVTVSS
VL: B15 VL with L72F, A100R
B18: g28-D78-7_CLK09 (antibody, V domains shown)
VH: B15 VH with S77N, R87K, F104S
VL: B15 VL with L72F, A100E
B19: g28-D78-1_CLK09 (antibody, V domains shown)
VH: QVQLVQSGAEVKKPGASVKVSCKTSGYTFTAYYVHWVRQAPGQGLEWMGWINPTNGATNYAQIFQGRVTMTRDTSISTAYMELNRLRSDDTAVYYCARVGGLWAFDIWGQGTIVTVSS
VL: DIQMTQSPSSLSASVGDRVTITCQTSQHITRNLNWYQQKPGKAPKLLISDAYNLKIGVPSRFSGSGSGTDFTFTISSLQPEDVATYYCQQYEFFGGGTEVEIK
B20: g28-D78-19_CLK09 (antibody, V domains shown)
VH: B19 VH
VL: B19 VL with T25A

This test has as its target eOD-GT8 (monomeric ligand) (Human immunodeficiency virus 1, …).
In general, Kd refers to the equilibrium constant for the complex coming apart. The low end stands for a tighter complex, the high end for a looser complex. B1 showed a Kd of 11 nM.
The value for B2 was 6.8 nM; that for B3 was 160 nM; that for B4 was 11 nM.
With B5 the figure was 130 nM; with B6, 11 nM.
With B7 the figure was 82 nM.
Molecule B8 displayed a Kd of 7.6 nM.
With B9 the figure was 15 nM; with B10, 9 nM; with B11, 8 nM.
The value for B12 was 6.5 nM; that for B13 was 7.1 nM.
The value for B14 was 6 nM.
On to B15, for which binding was characterised by a dissociation constant (Kd) of 0.29 nM.
With B16 the figure was 0.25 nM.
B17 yielded a Kd of 0.87 nM.
With B18 the figure was 0.2 nM; with B19, 7.1 nM; with B20, 8.8 nM.
